We go through one molecule from US20040058356A1, “Methods for global profiling gene regulatory element activity” (priority 2001, published 2004).

In assay [1] the test system is PC12 cells. Briefly: Global regulatory element activity profiling with PC12 nuclear extracts. It is filed as cell-based, rat. To be noted: treated vs untreated PC12 cells, FIG. 3. The protocol: Rat pheochromocytoma (PC) cells (cell line PC12; ATCC Number CRL-1721) were grown in high glucose Dulbecco's Modified Eagle Medium (DMEM) in the presence of 10% horse serum, and then transferred to serum-free DMEM plus N2 supplement (Invitrogen) containing 200 ng/ml Nerve Growth Factor-beta (NGF-beta; Sigma). After a 5 hour exposure, the cells were removed from the dishes, washed with PBS, and collected by centrifugation for regulatory element activity profiling.
Global regulatory element activity profiling was carried out using nuclear extracts from cells that were either untreated or treated with NGF-beta. Known transcription factor binding sites present in the DNA sequences were counted as described for Jurkat cells. Bars indicate the percentage of DNA fragments containing selected cis sites that were isolated in binding reactions containing nuclear extracts from either untreated (white bars) or NGFbeta-treated (black bars) PC12 cells. It can be seen that NGF treatment led to an increase in binding activity for AP 1, ATF and TCF11 (among others), while other activities, for example, E2F and RFX1, were reduced after NGF treatment.

In assay [2] the test system is PC12 cells. The assay can be described thus: EMSA with 32P-labeled transcription factor binding site oligonucleotides, PC12 nuclear extracts. It is filed as cell-based, rat. To be noted: treated vs untreated PC12 cells. The protocol: Confirmation of the increase in the transcription factor AP-1 binding activity was performed by electrophoretic mobility shift assay (EMSA). Nuclear extracts obtained from PC cells either treated with NGF-beta or untreated were combined in separate binding reactions. Each reaction also contained a ^32P-labeled oligonucleotide comprising a binding site for a specific transcription factor. […] In contrast, when the oligonucleotide was specific for the OCT1 binding site (lanes 7 and 8), no increase in gel-shifted material was observed.
(In general: A gel shift assay detects complexes by their altered migration in electrophoresis.)

B1: Nerve Growth Factor-beta (protein, UniProt P01139 122-241, looked up)
Beta-nerve growth factor: SSTHPVFHMGEFSVCDSVSVWVGDKTTATDIKGKEVTVLAEVNINNSVFRQYFFETKCRASNPVESGCRGIDSKHWNSYCTTTHTFVKALTTDEKQAAWRFIRIDTACVCVLSRKATRRG
modifications: Beta-nerve growth factor
notes: Nerve Growth Factor-beta (Sigma) used to treat PC12 cells
Consider B1, for which, in the assay on PC12 cells [1], the “AP 1 binding activity” value is on record as “increase”, the ATF binding activity result is given as “increase”, the E2F binding activity result is “reduced” and the RFX1 binding activity entry is “reduced”. The TCF11 binding activity entry in the assay on PC12 cells [1] is “increase”. Also, the “AP-1 binding site gel-shifted material (DNA-protein complexes)” value with PC12 cells [2] (FIG. 4 lanes 3 and 4) is on record as “significant increase”. In addition, the “OCT1 binding site gel-shifted material” value in the assay with PC12 cells [2] (FIG. 4 lanes 7 and 8) is “no increase”.
